Assay results taken from article PMC2190117.
Where “and” joins values, the source holds several entries; their conditions need not be identical. Identical values can stand only once. Like-named read-outs stand apart in the source and are kept apart here.

Legend:
[1] = target: human C3b (human) (UniProt P01024); assay: immunostaining of cells or tissue
[2] = target: human C3b (human) (UniProt P01024); assay: immunostaining of cells or tissue; remark: listed apart in the source
[3] = target: human C3b (human) (UniProt P01024); assay: immunostaining of cells or tissue; remark: listed apart in the source
[4] = target: human C3b (human) (UniProt P01024); assay: immunostaining of cells or tissue; remark: listed apart in the source
[5] = target: human C3b (human) (UniProt P01024); assay: immunostaining of cells or tissue; remark: listed apart in the source
[6] = target: human C3b (human) (UniProt P01024); assay: immunostaining of cells or tissue; remark: listed apart in the source
[7] = target: C3-C3b receptor (human (endogenous in Raji, Daudi and HPL)); assay: rosette formation
[8] = target: C3-C3b receptor (human (endogenous in Raji, Daudi and HPL)); assay: immunostaining of cells or tissue
[9] = target: C3-C3b receptor (human (endogenous in Raji, Daudi and HPL)); assay: immunostaining of cells or tissue; remark: listed apart in the source

Chain of UniProt P01024 (P01024 23-667, chain 1 of 2): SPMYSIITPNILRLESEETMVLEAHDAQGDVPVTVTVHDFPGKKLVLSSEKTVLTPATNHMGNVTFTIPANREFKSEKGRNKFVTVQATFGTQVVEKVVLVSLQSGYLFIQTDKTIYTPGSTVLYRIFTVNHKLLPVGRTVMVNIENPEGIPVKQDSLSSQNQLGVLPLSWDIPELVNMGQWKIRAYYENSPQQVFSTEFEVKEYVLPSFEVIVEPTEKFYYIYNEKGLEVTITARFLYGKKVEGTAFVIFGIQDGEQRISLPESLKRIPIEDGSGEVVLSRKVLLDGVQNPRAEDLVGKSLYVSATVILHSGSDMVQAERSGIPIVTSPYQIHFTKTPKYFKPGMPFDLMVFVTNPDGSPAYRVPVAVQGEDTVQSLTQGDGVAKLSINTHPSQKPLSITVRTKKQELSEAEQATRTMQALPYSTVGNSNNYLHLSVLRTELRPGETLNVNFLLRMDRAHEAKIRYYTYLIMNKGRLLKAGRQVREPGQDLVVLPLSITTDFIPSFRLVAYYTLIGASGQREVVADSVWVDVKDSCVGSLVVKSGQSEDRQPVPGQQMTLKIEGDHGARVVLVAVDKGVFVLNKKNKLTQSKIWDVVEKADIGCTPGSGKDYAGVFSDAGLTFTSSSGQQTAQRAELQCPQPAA
Chain of UniProt P01024 (P01024 749-1663, chain 2 of 2): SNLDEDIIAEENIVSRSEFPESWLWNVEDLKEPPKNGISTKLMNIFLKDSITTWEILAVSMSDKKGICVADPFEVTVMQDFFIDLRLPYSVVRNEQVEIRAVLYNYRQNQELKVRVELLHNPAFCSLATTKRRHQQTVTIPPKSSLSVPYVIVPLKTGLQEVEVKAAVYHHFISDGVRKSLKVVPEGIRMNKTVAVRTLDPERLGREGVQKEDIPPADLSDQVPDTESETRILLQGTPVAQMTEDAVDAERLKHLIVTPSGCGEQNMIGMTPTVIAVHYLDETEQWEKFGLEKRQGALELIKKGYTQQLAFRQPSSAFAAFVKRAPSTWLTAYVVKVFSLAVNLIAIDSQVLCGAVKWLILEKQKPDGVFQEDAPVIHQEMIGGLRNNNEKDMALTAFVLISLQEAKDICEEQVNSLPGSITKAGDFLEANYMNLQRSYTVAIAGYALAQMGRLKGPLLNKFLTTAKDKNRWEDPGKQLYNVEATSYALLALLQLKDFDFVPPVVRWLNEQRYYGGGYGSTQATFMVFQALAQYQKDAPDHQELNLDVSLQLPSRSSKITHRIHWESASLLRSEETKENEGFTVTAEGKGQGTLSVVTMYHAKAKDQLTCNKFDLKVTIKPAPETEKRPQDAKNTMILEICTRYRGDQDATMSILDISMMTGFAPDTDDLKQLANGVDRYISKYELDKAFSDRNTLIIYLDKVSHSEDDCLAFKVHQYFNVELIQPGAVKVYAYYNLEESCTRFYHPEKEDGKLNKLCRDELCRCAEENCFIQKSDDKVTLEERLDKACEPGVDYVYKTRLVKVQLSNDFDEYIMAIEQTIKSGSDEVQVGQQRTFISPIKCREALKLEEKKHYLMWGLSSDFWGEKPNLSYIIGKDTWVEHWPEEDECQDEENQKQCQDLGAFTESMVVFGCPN

Substance	percent immunofluorescence positive cells [1] [%]	percent immunofluorescence positive cells [2] [%]	percent immunofluorescence positive cells [3] [%]	percent immunofluorescence positive cells [4] [%]	percent immunofluorescence positive cells [5] [%]	percent immunofluorescence positive cells [6] [%]	percent rosette-forming cells [7]	percent cells binding [8] [%]	percent immunofluorescence positive cells [8] [%]	percent cells binding [9] [%]	percent immunofluorescence positive cells [9] [%]
factor B (natural protein)	2	95	5	93	89	5	–	–	–	–	–
human C3b (from UniProt P01024 23-667; P01024 749-1663) (domain or fragment)	–	–	–	–	–	–	100% and 98%	100	98	90	–
human complement component C3 (from UniProt P01024 23-667; P01024 672-1663) (natural protein)	–	–	–	–	–	–	–	100	100	90	100
